T1: SBP-tagged Ufd1/Npl4 heterodimer (SBP tag on Ufd1) (S. cerevisiae, UniProt P53044 1-361; P33755 1-580)
T1 sequence (looked up) 1: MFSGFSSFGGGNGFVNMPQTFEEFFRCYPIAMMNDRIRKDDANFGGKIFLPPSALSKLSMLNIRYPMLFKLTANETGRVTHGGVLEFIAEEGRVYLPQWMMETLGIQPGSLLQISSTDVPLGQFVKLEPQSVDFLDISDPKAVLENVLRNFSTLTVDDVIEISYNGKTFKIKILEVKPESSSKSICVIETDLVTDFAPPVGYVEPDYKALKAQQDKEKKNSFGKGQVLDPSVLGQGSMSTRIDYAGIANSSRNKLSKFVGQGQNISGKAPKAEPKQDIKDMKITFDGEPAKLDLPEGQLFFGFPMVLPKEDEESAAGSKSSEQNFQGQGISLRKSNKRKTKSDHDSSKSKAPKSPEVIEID
T1 sequence (looked up) 2: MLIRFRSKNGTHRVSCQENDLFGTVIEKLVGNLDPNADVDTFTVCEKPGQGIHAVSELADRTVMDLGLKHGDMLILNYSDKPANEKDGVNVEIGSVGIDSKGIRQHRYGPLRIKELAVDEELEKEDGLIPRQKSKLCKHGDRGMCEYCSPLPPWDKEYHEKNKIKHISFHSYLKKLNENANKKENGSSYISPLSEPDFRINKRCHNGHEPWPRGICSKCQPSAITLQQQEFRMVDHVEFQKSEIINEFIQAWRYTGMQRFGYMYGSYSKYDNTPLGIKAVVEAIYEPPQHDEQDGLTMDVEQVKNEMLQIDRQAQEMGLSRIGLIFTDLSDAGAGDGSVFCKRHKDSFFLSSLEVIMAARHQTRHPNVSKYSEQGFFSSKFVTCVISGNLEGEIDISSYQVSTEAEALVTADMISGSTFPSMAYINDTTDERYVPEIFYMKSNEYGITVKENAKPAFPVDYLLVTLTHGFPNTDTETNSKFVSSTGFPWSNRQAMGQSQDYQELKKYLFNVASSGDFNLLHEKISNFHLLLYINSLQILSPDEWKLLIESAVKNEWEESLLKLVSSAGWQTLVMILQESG

B1: Cdc48 ATPase (wild type, untagged) (enzyme, S. cerevisiae, UniProt P25694 1-835, looked up)
chain: MGEEHKPLLDASGVDPREEDKTATAILRRKKKDNMLLVDDAINDDNSVIAINSNTMDKLELFRGDTVLVKGKKRKDTVLIVLIDDELEDGACRINRVVRNNLRIRLGDLVTIHPCPDIKYATRISVLPIADTIEGITGNLFDVFLKPYFVEAYRPVRKGDHFVVRGGMRQVEFKVVDVEPEEYAVVAQDTIIHWEGEPINREDEENNMNEVGYDDIGGCRKQMAQIREMVELPLRHPQLFKAIGIKPPRGVLMYGPPGTGKTLMARAVANETGAFFFLINGPEVMSKMAGESESNLRKAFEEAEKNAPAIIFIDEIDSIAPKRDKTNGEVERRVVSQLLTLMDGMKARSNVVVIAATNRPNSIDPALRRFGRFDREVDIGIPDATGRLEVLRIHTKNMKLADDVDLEALAAETHGYVGADIASLCSEAAMQQIREKMDLIDLDEDEIDAEVLDSLGVTMDNFRFALGNSNPSALRETVVESVNVTWDDVGGLDEIKEELKETVEYPVLHPDQYTKFGLSPSKGVLFYGPPGTGKTLLAKAVATEVSANFISVKGPELLSMWYGESESNIRDIFDKARAAAPTVVFLDELDSIAKARGGSLGDAGGASDRVVNQLLTEMDGMNAKKNVFVIGATNRPDQIDPAILRPGRLDQLIYVPLPDENARLSILNAQLRKTPLEPGLELTAIAKATQGFSGADLLYIVQRAAKYAIKDSIEAHRQHEAEKEVKVEGEDVEMTDEGAKAEQEPEVDPVPYITKEHFAEAMKTAKRSVSDAELRRYEAYSQQMKASRGQFSNFNFNDAPLGTTATDNANSNNSAPSGAGAAFGSNAEEDDDLYS
B2: Otu1 (wild type) (enzyme, UniProt P43558 1-301, looked up)
chain: MKLKVTGAGINQVVTLKQDATLNDLIEHINVDVKTMRFGYPPQRINLQGEDASLGQTQLDELGINSGEKITIESSDSNESFSLPPPQPKPKRVLKSTEMSIGGSGENVLSVHPVLDDNSCLFHAIAYGIFKQDSVRDLREMVSKEVLNNPVKFNDAILDKPNKDYAQWILKMESWGGAIEIGIISDALAVAIYVVDIDAVKIEKFNEDKFDNYILILFNGIHYDSLTMNEFKTVFNKNQPESDDVLTAALQLASNLKQTGYSFNTHKAQIKCNTCQMTFVGEREVARHAESTGHVDFGQNR

Experiments:
[1] = biological target: T1, SBP-tagged Ufd1/Npl4 heterodimer (SBP …); test: pull-down
[2] = biological target: B1; test: pull-down

Binder | binding result [1] | binding result [2]
B1 | binds | –
B2 | – | binds
